The target of one assay is T1, hMPV058 (hMPV A, UniProt Q6WB98 19-102).
T1 construct: L187P
In words: BLI, 53C stress. (In general: Biolayer interferometry detects binding as a change in optical thickness at a sensor tip.)

For another assay, the target named is T2, hMPV068 (hMPV A, UniProt Q6WB98 19-102).
T2 construct: A159V
The experiment in a line: BLI, 53C stress.

Another assay has as its target T3, hMPV069 (hMPV A, UniProt Q6WB98 19-102).
T3 construct: S291I
The experiment in a line: BLI, 53C stress.

Another assay addresses T4, hMPV077 (hMPV A, UniProt Q6WB98 19-102).
T4 construct: Q476C, S477C
In words: BLI, 53C stress.

The next assay addresses T5, hMPV044 (hMPV A, UniProt Q6WB98 19-102).
T5 construct: T411C-Q434C
In words: BLI, 53C stress.

A further assay has as its target T6, hMPV045 (hMPV A, UniProt Q6WB98 19-102).
T6 construct: I137C-A159C
In words: BLI, 53C stress.

Another assay deals with T7, hMPV078 (hMPV A, UniProt Q6WB98 19-102).
T7 construct: T411C-Q434C, A140C-S149C
The experiment in a line: BLI, 53C stress.

The target of a further assay is T8, hMPV079 (hMPV A, UniProt Q6WB98 19-102).
T8 construct: T411C-Q434C, A140C-S149C, A459P
In words: BLI, 53C stress.

Another assay has as its target T9, hMPV081 (hMPV A, UniProt Q6WB98 19-102).
T9 construct: T411C-Q434C, A140C-S149C, T365I
The experiment in a line: BLI, 53C stress.

The target of a further assay is T10, hMPV082 (hMPV A, UniProt Q6WB98 19-102).
T10 construct: T411C-Q434C, A140C-S149C, G239A
In words: BLI, 53C stress.

Another assay concerns the target T11, hMPV083 (hMPV A, UniProt Q6WB98 19-102).
T11 construct: T411C-Q434C, A140C-S149C, A459P, G239A, T49I, T365I
In words: BLI, 53C stress.

A further assay deals with T12, hMPV084 (hMPV A, UniProt Q6WB98 19-102).
T12 construct: T411C-Q434C, L141C-A161C
The experiment in a line: BLI, 53C stress.

The next assay has as its target T13, hMPV085 (hMPV A, UniProt Q6WB98 19-102).
T13 construct: T411C-Q434C, L141C-A161C, A459P
The experiment in a line: BLI, 53C stress.

For a further assay, the target named is T14, hMPV086 (hMPV A, UniProt Q6WB98 19-102).
T14 construct: T411C-Q434C, L141C-A161C, T49I; also called hMP0086
The experiment in a line: BLI, 53C stress.

Another assay addresses T15, hMPV087 (hMPV A, UniProt Q6WB98 19-102).
T15 construct: T411C-Q434C, L141C-A161C, T365I
In words: BLI, 53C stress.

The target in a further assay is T16, hMPV088 (hMPV A, UniProt Q6WB98 19-102).
T16 construct: T411C-Q434C, L141C-A161C, G239A
In words: BLI, 53C stress.

The target in a further assay is T17, hMPV089 (hMPV A, UniProt Q6WB98 19-102).
T17 construct: T411C-Q434C, L141C-A161C, S149T
The experiment in a line: BLI, 53C stress.

Another assay has as its target T18, hMPV090 (hMPV A, UniProt Q6WB98 19-102).
T18 construct: T411C-Q434C, L141C-A161C, A459P, G239A, T49I, S149T, T365I
In words: BLI, 53C stress.

Another assay addresses T19, hMPV097 (hMPV A, UniProt Q6WB98 19-102).
T19 construct: T411C-Q434C, E146C-T160C, A459P, G239A, T49I, S149T, T365I
In words: BLI, 53C stress.

Another assay addresses hMPV A F WT Control (hMPV A, UniProt Q6WB98 19-102). In words: BLI, 53C stress.
The next assay has as its target T20, PIV1048 (PIV1).
T20 construct: Q92C-G134C, A466L, S473L, A480L
In words: BLI, 56C stress.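 Note: binding of thermally stressed PIV1 F mutant supernatant to mAb on AHC biosensors for 5 min.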

Another assay has as its target T21, PIV1049 (PIV1).
T21 construct: Q92C-G134C, A466L, S473L
In words: BLI, 56C stress.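 Note: binding of thermally stressed PIV1 F mutant supernatant to mAb on AHC biosensors for 5 min.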

The next assay has as its target T22, PIV1050 (PIV1).
T22 construct: F113G, F114S, Q92C-G134C, A466V, S473V, A480V
In words: BLI, 56C stress.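 Note: binding of thermally stressed PIV1 F mutant supernatant to mAb on AHC biosensors for 5 min.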

The target in another assay is T23, PIV1052 (PIV1).
T23 construct: Q92C-G134C, A466V, S473V; also called PV1052
In words: BLI, 56C stress.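 Note: binding of thermally stressed PIV1 F mutant supernatant to mAb on AHC biosensors for 5 min.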

For the next assay, the target named is T24, PIV1053 (PIV1).
T24 construct: F113G, F114S, A466L, S473L, A480L, G134A
In words: BLI, 56C stress.

The next assay addresses T25, PIV1056 (PIV1).
T25 construct: F113G, F114S, A466L, S473L, A480L, Q92A, G134A
The experiment in a line: BLI, 56C stress.

In a further assay the target is T26, PIV1057 (PIV1).
T26 construct: A466L, S473L, A480L, Q92A, G134A
In words: BLI, 56C stress.

Another assay has as its target T27, PIV1059 (PIV1).
T27 construct: F113G, F114S, A466L, S473L, A480L, G134A, Q92L
The experiment in a line: BLI, 56C stress.

Another assay concerns the target T28, PIV1063 (PIV1).
T28 construct: A466L, S473L, A480L, Q92A, G134L
The experiment in a line: BLI, 56C stress.

For another assay, the target named is T29, PIV1065 (PIV1).
T29 construct: F113G, F114S, Q92C-G134C, A466I, S473I
The experiment in a line: BLI, 56C stress.

In the next assay the target is T30, PIV1067 (PIV1).
T30 construct: F113G, F114S, Q92C-G134C, A466I, S473I, A480I
In words: BLI, 56C stress.

Procedure for PIV1048: (§1) The OCTET HTX (Sartorius, Gottingen, Germany) instrument was used to evaluate the expression and conformational integrity for each mutant. All measurements were conducted at 30° C. temperature in 96-well black plates (Corning, Corning, NY) with a final volume of 240 μL per well at a constant agitation rate of 1000 RPM.
(§2) Conformation integrity of PIV1 F protein mutants were evaluated by a thermal stress experiment. Crude cell culture supernatants were normalized based on the results of the titer quantitation and then incubated for 1 hour at room temperature and two higher temperatures. For the initial testing of PIV1 mutants, the two temperatures were 50° C. and 53° C. […] Anti-Human IgG Fc Capture (AHC) biosensors were first equilibrated in PB for before being dipped into more PB to establish the initial baseline. […] The mAb-bound biosensors were then dipped into the thermal stresses cell culture supernatants for 5 minutes.
Procedure for PIV1049: as §1, §2
Procedure for PIV1050: as §1, §2
Procedure for PIV1052: as §1, §2
Procedure for PIV1053: as §1, §2
Procedure for PIV1056: as §1, §2
Procedure for PIV1057: as §1, §2
Procedure for PIV1059: as §1, §2
Procedure for PIV1063: as §1, §2
Procedure for PIV1065: as §1, §2
Procedure for PIV1067: as §1, §2
Procedure for hMPV A F WT Control: as §1
(§3) Conformation integrity of hMPV A F protein mutants were evaluated by thermal stress experiments. Crude cell culture supernatants were normalized based on the results of the titer quantitation and then incubated for 1 hour at room temperature and two higher temperatures. […] Anti-Human IgG Fc Capture (AHC) biosensors were first equilibrated in PB before being dipped into more PB to establish the initial baseline. […] The mAb-bound biosensors were then dipped into the thermal stressed cell culture supernatants for 5 minutes. The kinetics analysis was done by OCTET data analysis software (version 12.0, Sartorius) based on curve fitting of the entire associate step.
Procedure for hMPV044: as §1, §3
Procedure for hMPV045: as §1, §3
Procedure for hMPV058: as §1, §3
Procedure for hMPV068: as §1, §3
Procedure for hMPV069: as §1, §3
Procedure for hMPV077: as §1, §3
Procedure for hMPV078: as §1, §3
Procedure for hMPV079: as §1, §3
Procedure for hMPV081: as §1, §3
Procedure for hMPV082: as §1, §3
Procedure for hMPV083: as §1, §3
Procedure for hMPV084: as §1, §3
Procedure for hMPV085: as §1, §3
Procedure for hMPV086: as §1, §3
Procedure for hMPV087: as §1, §3
Procedure for hMPV088: as §1, §3
Procedure for hMPV089: as §1, §3
Procedure for hMPV090: as §1, §3
Procedure for hMPV097: as §1, §3

B1: hMPV-2 mAb (antibody, V domains shown)
VH: QVQLQQSGAEVKKPGASVKVSCKASGYTFTSYGISWVRQAPGQGLEWMGWISGYNGNTNYAQTFQGTFTMTTDTSTSTAYMELRRLRSGDTAVYYCARDRYYASGSYNGMDVWGQGTTVTVSS
VL: QSALTQPPSASGAPGQRVTVSCSGSSSNVGSSSVYWYQQLPGTAPKLLIYRNNQRPSGVPDRFSGSKSGTSASLAISGLRSEDEADYYCAAWDDSLSGWVFGGGTKLTVLG
notes: human IgG1
B1: the “Response Shift” value is -0.052 nm with hMPV058; 0.022 nm in the assay with hMPV068; -0.005 nm in the assay with hMPV069; -0.007 nm with hMPV077; 0.618 nm with hMPV044; -0.048 nm in the assay with hMPV045. Further, the “Response Shift” value stood at 0.757 nm in the assay with hMPV078; 0.73 nm with hMPV079; 0.778 nm with hMPV081; 0.816 nm with hMPV082; 0.755 nm in the assay with hMPV083; 0.776 nm with hMPV084. Also, the “Response Shift” value amounted to 0.672 nm with hMPV085; 0.746 nm in the assay with hMPV086; 0.709 nm with hMPV087; 0.816 nm with hMPV088; 0.801 nm in the assay with hMPV089; 0.815 nm with hMPV090. In addition, the “Response Shift” value is 0.82 nm with hMPV097 and -0.014 nm in the assay with hMPV A F WT Control.

B2: PIV1-8 mAb (antibody, V domains shown)
VH: QVQLVQSGAEVKKPGSSVKVSCEASGGTFSNYVISWVRQAPGQGLEWMGGIIPVFATAKYAQKFQGRVTIIADQSTNTAYLELSSLRSDDTAVYFCASVDSGGTWWDAFAIWGQGTMVTVSS
VL: QAVVTQPRSVSGSPGQAVTISCTGTSSDVGGYNYVSWYQHHPGKAPKLIIYDVTKRPSGVPDRFSGSKSGNTASLTISGLQTEYEADYYCCSYAGSYTLVFGGGTKLTVLG
notes: human IgG1; also called hPIV1-8 mAb; hPIV1-8
For the molecule B2, the “Response Shift” value with PIV1048 is 0.71 nm; with PIV1049, 0.294 nm; in the assay with PIV1050, 0.695 nm; with PIV1052, -0.094 nm; with PIV1053, 0.776 nm; with PIV1056, 0.751 nm. For the same molecule, the “Response Shift” value with PIV1057 was 0.737 nm; with PIV1059 it was 0.784 nm; with PIV1063, -0.069 nm; in the assay with PIV1065, 0.677 nm; in the assay with PIV1067, 0.728 nm.

Values taken from US20240252614A1 (Pfizer, published 2024).
